Data on 1 molecule can be found in patent US20170306005A1 (NASCIENT, published 2017).

Substitutions are numbered along the chain they refer to.

Test [1] concerns the target T1, human tenascin-C rCd4-His-FBG (rat; human, UniProt P05540 207-392, limits assumed).
T1 construct: domain: domains 3 and 4; C-terminal FBG fusion; biotinylated in the ELISA and HTRF screens; also called Hu TNC; human TNC rCd4-His-FBG; not shown: 6His tag
T1 sequence (chain (part 1 of 2)): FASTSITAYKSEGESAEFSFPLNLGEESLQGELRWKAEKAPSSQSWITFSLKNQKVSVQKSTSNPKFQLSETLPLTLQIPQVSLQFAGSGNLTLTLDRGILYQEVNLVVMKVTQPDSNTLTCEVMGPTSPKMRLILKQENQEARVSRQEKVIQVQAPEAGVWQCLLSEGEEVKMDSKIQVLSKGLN
T1 sequence (chain (part 2 of 2)): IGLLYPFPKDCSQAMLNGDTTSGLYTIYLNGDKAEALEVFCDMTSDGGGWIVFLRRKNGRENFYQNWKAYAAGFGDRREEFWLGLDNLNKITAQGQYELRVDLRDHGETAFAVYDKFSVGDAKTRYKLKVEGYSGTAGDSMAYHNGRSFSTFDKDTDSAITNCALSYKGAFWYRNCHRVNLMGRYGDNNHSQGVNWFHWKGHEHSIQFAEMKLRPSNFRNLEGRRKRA
The experiment in a line: SPR, captured purified IgG4, 37 C. For orientation: In SPR one partner is held on a chip, and binding of the other changes the refractive index at the surface.

The target in test [2] is T2, mouse tenascin-C rCd4-His-FBG (rat; mouse, UniProt P05540 207-392, limits assumed).
T2 construct: domain: domains 3 and 4; C-terminal FBG fusion; biotinylated in the ELISA screen; also called Mu TNC; mouse TNC rCd4-His-FBG; not shown: 6His tag
T2 sequence (chain (part 1 of 2)): T1 sequence (chain (part 1 of 2))
T2 sequence (chain (part 2 of 2)): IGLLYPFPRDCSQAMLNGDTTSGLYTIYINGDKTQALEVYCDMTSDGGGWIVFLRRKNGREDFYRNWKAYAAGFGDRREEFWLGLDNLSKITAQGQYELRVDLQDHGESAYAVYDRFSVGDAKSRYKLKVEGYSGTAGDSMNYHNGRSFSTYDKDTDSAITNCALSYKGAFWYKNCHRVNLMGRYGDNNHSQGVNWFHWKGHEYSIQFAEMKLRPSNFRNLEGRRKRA
The experiment in a line: SPR, captured purified IgG4, 37 C.

Test [3] deals with T3, rat tenascin-C rCd4-His-FBG (rat, UniProt P05540 207-392, limits assumed).
T3 construct: domain: domains 3 and 4; C-terminal FBG fusion; also called Rat TNC; rat TNC rCD4-His-FBG; not shown: 6His tag
T3 sequence (chain (part 1 of 2)): T1 sequence (chain (part 1 of 2))
T3 sequence (chain (part 2 of 2)): T2 sequence (chain (part 2 of 2)) with A72T
Nature of the test: SPR, captured purified IgG4, 37 C.

The target in test [4] is T4, dog tenascin-C rCD4-His-FBG (rat; dog, UniProt P05540 207-392, limits assumed).
T4 construct: domain: domains 3 and 4; C-terminal FBG fusion; also called Dog TNC; not shown: 6His tag
T4 sequence (chain (part 1 of 2)): T1 sequence (chain (part 1 of 2))
T4 sequence (chain (part 2 of 2)): T2 sequence (chain (part 2 of 2)) with I29L, T34A, S89H, Q104R, E108K, S109T, S124T, N142A, Y152F
Nature of the test: SPR, captured purified IgG4, 37 C.

A further test has as its target T5, human Fc-His-FBG (human, UniProt P24821 1974-2201).
T5 construct: C-terminal FBG fusion to human IgG1 Fc; also called Fc-His-huFBG; huFc-His-FBG; not shown: human IgG1 Fc tag; 6His tag
T5 sequence: T1 sequence (chain (part 2 of 2))
Nature of the test: plate assay: inhibition of binding of 100 nM Fc-His-TNC-FBG to coated TLR4, against isotype control. The method, then: FIG. 16B. […] Detection was carried out by successive incubation of antibody directed against the Fc portion of the protein, an anti-mouse HRP conjugated secondary antibody and TMB substrate.
Detection was carried out by successive incubation of antibody directed against the Fc portion of the protein, an anti-mouse HRP conjugated secondary antibody and TMB substrate.

In test [5] the target is T6, human tenascin-R rCd4-His-FBG (rat; human, UniProt P05540 207-392, limits assumed).
T6 construct: domain: domains 3 and 4; C-terminal FBG fusion; also called Hu TNR; human TNR rCd4-His-FBG; not shown: 6His tag
T6 sequence (chain (part 1 of 2)): T1 sequence (chain (part 1 of 2))
T6 sequence (chain (part 2 of 2)): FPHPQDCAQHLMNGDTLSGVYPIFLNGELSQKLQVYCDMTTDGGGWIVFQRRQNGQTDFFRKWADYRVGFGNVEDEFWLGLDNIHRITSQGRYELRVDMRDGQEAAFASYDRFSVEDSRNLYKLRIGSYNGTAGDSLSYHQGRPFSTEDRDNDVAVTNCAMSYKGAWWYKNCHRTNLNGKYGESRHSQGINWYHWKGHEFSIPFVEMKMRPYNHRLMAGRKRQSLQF
The experiment in a line: SPR, captured purified IgG4, 37 C; purified IgG4, full kinetics, SPR at 37 C. The method, then:
Detailed kinetic parameters were evaluated for the 9 prioritised IgG4 antibodies. Binding characteristics were determined for interaction with human, rat and dog TNC rCD4-His-FBG, and human TNR rCD4-His-FBG. Kinetic assays followed essentially the same protocols as for the off-rate determinations described above, with some modifications as follows. […] Purified anti-FBG IgG4 was diluted to a concentration of 3.5 nM in PBS, pH 7.4, 0.05% Tween-20 and injected into FC2 at a flow rate of 10 μl/min, 60 s contact time. […] Antigens were prepared by doubling dilution in PBS, pH 7.4, 0.05% Tween-20 (highest concentration 100 nM except mouse rCD4-His-FBG which was 7 nM). Assays were performed at 37° C. (30 μl/min, 120 s contact time; mouse rCD4-His-FBGFBG 10 μl/min, 60 s contact time), with both the flow cell and injection chamber equilibrated to this temperature. As before, kinetic parameters were determined by reference cell subtraction and fitting the sensogram experimental data assuming a 1:1 interaction using BIAevaluation software (GE, BR-1005-97).

B1: 165_13_C3 human IgG4 (antibody, V domains shown)
VH: QVQLVESGGGLVQPGRSLRLSCAASGFTFDDYAMHWVRQAPGKGLEWVSGISGSGGSTYYADSVKGRFTISRDNAKNSLYLQMNSLRAEDTALYYCAKSYQSDEDAFDIWGQGTMVTVSS
VL: DIQMTQSPASLPTPVGDRVTITCRASQYIQGFLNWYQQKPGKAPKLLIYDASNLETGVPSRFSGSGSGTDFTLTISSLQPEDFATYYCQQSYSTPQTFGQGTKVDIKR
notes: also called IgG4 C3; C3 IgG4 MAb
As a reminder, the Kd is a measure of binding affinity in units of concentration. Lower therefore signals tighter binding. One may read the koff as the rate constant with which the complex falls apart. In general, kon refers to the second-order rate constant of association. A high value points to fast association. What is called IC50 is the point on the concentration scale where inhibition reaches its midpoint. A lower IC50 goes with higher potency. With B1, the Kd in test [1] came to 0.072 nM; in test [2], 0.46 nM; in test [3], 1.22 nM; in test [4] it was 1.8 nM; in test [5] it was 35.8 nM. Moreover, the koff in test [1] worked out at 0.00083 s⁻¹; in test [2] it was 0.000445 s⁻¹; in test [3] it was 0.00473 s⁻¹; in test [4], 0.0108 s⁻¹; in test [5], 0.0431 s⁻¹. Besides, the kon in test [1] was 1.16e+07 M⁻¹ s⁻¹; in test [2] it was 972000 M⁻¹ s⁻¹; in test [3], 3.89e+06 M⁻¹ s⁻¹; in test [4] it was 5.97e+06 M⁻¹ s⁻¹; in test [5] it was 1.2e+06 M⁻¹ s⁻¹. The molecule further came in with a half-maximal inhibitory concentration (IC50) in the test with human Fc-His-FBG of 44.5 nM.
